Measurements published in FireProtDB (doi:10.1038/s41589-020-0556-3).
Where “and” joins values, the source holds several entries; their conditions need not be identical. Equal entries are not always repeated.

B1: Barstar, P11540 (parent)
chain: MKKAVINGEQIRSISDLHQTLKKELALPEYYGENLDALWDCLTGWVEYPLVLEWRQFEQSKQLTENGAESVLQVFREAKAEGCDITIILS

Variants of: B1
Settings: Bacillus amyloliquefaciens; pH 7.5; 25 °C; Urea; fluorescence; HEPES; KCL / MgOAc 150000 / 15000; transition: 2; structure 1BTA; whole UniProt chain shown

Variant	denaturant m value	denaturant midpoint (higher = more stable)	unfolding free energy [kcal/mol]
K61A	0.96 kcal/mol/M and 0.68 kcal/mol/M	4.41 M and 2.51 M	4.25
K3A	1.06 kcal/mol/M and 0.59 kcal/mol/M	4.97 M and 2.52 M	5.27
K61A E81A	1.16 kcal/mol/M and 0.7 kcal/mol/M	6.02 M and 3.72 M	6.99
K79A	0.89 kcal/mol/M and 0.48 kcal/mol/M	4.65 M and 4.24 M	4.16
